Laboratory results from the supplement of paper PMC9170038.

Columns and labels:
[1] = system: MS2 coat protein; test: apparent KD of MS2 coat protein, switch OFF state (with FMN for OFF switches, without FMN for ON switches); designed switch direction (-1 OFF switch, 1 ON switch): -1; higher = weaker reporter binding; details: FMN input: 0 or 200 uM; Eterna round: R93 (includes R88 designs)
Procedure, shortened: (§1)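 Illumina sequencing clusters served as templates for on-chip transcription of the designed RNA switches. SNAP-549-labelled MS2 coat protein was then titrated in twofold steps from 0.7 or 1.5 nM to 3 µM, allowing 0.8–1.5 h per step at first and 10–20 min per step later. The buffer held 100 mM Tris-HCl pH 7.5, 80 mM KCl and 4 mM MgCl2, without or with constant ligand. Apparent KD is the median per design of normalised cluster binding-curve fits.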

[2] = system: MS2 coat protein; test: apparent KD of MS2 coat protein, switch ON state; designed switch direction (-1 OFF switch, 1 ON switch): -1; higher = weaker reporter binding; details: FMN input: 0 or 200 uM; Eterna round: R93 (includes R88 designs)
Procedure, shortened: as §1

Row | Sequence | apparent KD of MS2 coat protein [1] [nM] | apparent KD of MS2 coat protein [2] [nM]
1 | GAAACUGGAGGAUAUACGAACAUGUCAAAAGACGUGAAGGGACAUGAGGAUCACCCAUGUAGAAGGCUAGAAAG [Mat - Exclusion 2 - JL mod - D99] | 22.4 | 74.9
2 | GAAACUGGAGGAUAUACGUACAUGUCAAAAGACGUGAAGGGACAUGAGGAUCACCCAUGUAGAAGGCUAGAAAG [Mat - Exclusion 2 - JL mod - D97] | 21.9 | 70.6
3 | GAAGAACAUGAGGAUCACCCAUGUCAGGAUAUACAGAAGGGAAUAAUAUAACCUGGAAGUAGAAGGGACAAGAA [Ex 1 May 44] | 65.4 | 30.2
4 | GACAUGCUAGGAUAUACAGGACAAAUUGGGCAUCCGCAUGGACAUGAGGAUCACCCAUGUAGAAGGAGUAGAAA [Inonmatixe] | 798 | 368
5 | GAGAUACAUGAGGAUCACCCAUGUGAGGAUAUCGGUUGGAGGAGGUGGAGGUUGAGUACGAGAAGGCACGGAUG [salish99-Ex1-10] | 31.1 | 24.9
6 | GCUGUCCUAGGAUAUACAUGAGGAUCACCCAUGUGAGAGAAAAAAGUGAGAAAGAAAAGUAGAAGGAGGGUAGG [salish99-ex3-104] | 44.4 | 30.4
7 | GCUGUGCUAGGAUAUACAUGAGGAUCACCCAUGUGAGAGAAAAAAGUGAGAAAGAAAAGUAGAAGGAGCGUAGG [salish99-ex3-100] | 59.2 | 29.1
8 | GCUUGUGAAGGAUAUACAUGAGGAUCACCCAUGUGAGAGAAAAAAGUGAGAAAGAAAAGUAGAAGGUCGUGAGG [salish99-ex3-79] | 37 | 36.1
9 | GGAAAACAUGAGGAUCACCCAUGUAAGGAUAUGCAAAGGAUAUAGAAGGAAAAAAAAAGCAGAAGGUACAAAGG [salish99-ex1-20] | 53.6 | 26.5
10 | GGAAAGUAAGGAUAUGCGAACAAACAAACAAACAAAAGGGAACAUGAGGAUCACCCAUGUAGAAGGUGCAAACA [Exclusion 2 Three redone] | 32.6 | 46
11 | GGGAAACAUGAGGAUCACCCAUGUGAGGAUAUGCUAUGGAAAAUAAAAAUAAAACAUAGCAGAAGGCAUAAAAA [Denovo 11] | 37 | 30.6
12 | GGUUGGCGAGGAUAUACAUGAGGAUCACCCAUGUGAGAGAAAAAAGUGAGAAAGAAACGUAGAAGGCGCUGACG [salish99-ex3-30] | 824 | 88.4
13 | GGUUGGCGAGGAUAUACAUGAGGAUCACCCAUGUGAGAGAAGAAAGUGAGGAGGAGAAGUAGAAGGCGCUGACG [salish99-ex3-20] | 98.9 | 51.4
14 | GUAAACCUAGGAUAUACAUGAGGAUCACCCAUGUAAAAAUUAAUAAAAAGAAAAACAAGUAGAAGGAGGUAGAU [JR_Exc003_Sub1225] | 20.8 | 19.6
15 | GUGAAGGAAGGAUAUACAAAGGGACGUUAUAAGAGAAGAAGACAUGAGGAUCACCCAUGUAGAAGGUCCAGAUC [Beorteesri] | 43.5 | 25.9
16 | GUGUACAGAGGAUAUACAUAAGCAUGGAAACAUGCAACUUCACAUGAGGAUCACCCAUGUAGAAGGCUGUACAC [Ex2: 729] | 13.7 | 12.1
17 | GUGUACAGAGGAUAUACAUAAGCAUGGAAACAUGCAAGAUCACAUGAGGAUCACCCAUGUAGAAGGCUGUACAC [Ex2: 738] | 180 | 342
18 | GUGUACAGAGGAUAUAUAUGAGCUAGGAAACUAGCAAGAUCACAUGAGGAUCACCCAUGUAGAAGGCUGUACAC [Ex2: 735] | 796 | 108
19 | UAGAUACAUGAGGAUCACCCAUGUGAGGAUAUCGUUUGUACUAAUCUUUUAGUAUUUUCGAGAAGGCACAUAUA [Ex1Try2_Neo] | 143 | 48.5
20 | UAUAGACAUGAGGAUCACCCAUGUGAGGAUAUCAGUAACUACAAAACAUCACAUACAAUGAGAAGGCACAGAAA [JR_Exc001_Sub014] | 49.8 | 40
21 | UCCACACAUGAGGAUCACCCAUGUGAGGAUAUCUAGAAAACCUCAUGUAAAAAAAUCUAGAGAAGGCAUAUGAA [Design 91: Pseudoknot A] | 18.6 | 24.1
22 | UCCAGACAUGAGGAUCACCCAUGUCAGGAUAUCUAGAAAACCUCAUGUAAAAAAAACUAGAGAAGGGAUAUGAA [Design 96: Pseudoknot F] | 15.7 | 19.6
